Assay results reported in patent US20210130436A1 (published 2021).
Numbering of substitutions follows the chain as printed. Names may count otherwise.

B1: CD80 IgV-Fc T13R/Q33R/E35D/M47L/V68M (Fc fusion, not shown: a dimerising Fc or GST)
chain: VIHVTKEVKEVARLSCGHNVSVEELAQTRIYWRKDKKMVLTMMSGDLNIWPEYKNRTIFDITNNLSIMILALRPSDEGTYECVVLKYEKDAFKREHLAEVTLSVKAD
B2: CD80 E35D/D46V/M47V/N48K/V68M IgV-Fc (Fc fusion, not shown: small tags and cut ends; a dimerising Fc or GST)
chain: B1 chain with R13T, R33Q, D46V, L47V, N48K
B3: CD80 IgV-Fc T13R/Q33L/E35D/M47L/V68M/L85M (Fc fusion, not shown: a dimerising Fc or GST)
chain: B1 chain with R33L, L85M
B4: CD80 IgV-Fc T13R/Q33R/E35D/M38I/M47L/V68M/L85M (Fc fusion, not shown: a dimerising Fc or GST)
chain: B1 chain with M38I, L85M
B5: CD80 IgV-Fc T13R/Q33R/E35D/M38I/M47L/V68M/E95V/L97Q (Fc fusion, not shown: a dimerising Fc or GST)
chain: B1 chain with M38I, E95V, L97Q
B6: CD80 E35D/D46V/M47V/V68M/L85Q IgV-Fc (Fc fusion, not shown: small tags and cut ends; a dimerising Fc or GST)
chain: B1 chain with R13T, R33Q, D46V, L47V, L85Q
B7: CD80 IgV-Fc T13R/Q33R/E35D/M47L/V68M/L85M (Fc fusion, not shown: a dimerising Fc or GST)
chain: B1 chain with L85M
B8: CD80 IgV-Fc T13R/Q33L/E35D/M47V/T62S/V68M/L85M (Fc fusion, not shown: a dimerising Fc or GST)
chain: B1 chain with R33L, L47V, T62S, L85M
B9: variant CD80 IgV-Fc E35D/M38T/D46E/M47V/N48S (Fc fusion, not shown: small tags and cut ends; a dimerising Fc or GST)
chain: B1 chain with R13T, R33Q, M38T, D46E, L47V, N48S, M68V
notes: Fc fusion of the variant IgV

What was measured:
[1] = target: T1, human PD-L1 (human, UniProt Q9NZQ7 19-290); test: flow cytometry; PD-L1 MFI over CD28 MFI
T1 construct: also called huPD-L1; CD274
T1 sequence (Q9NZQ7 19-290): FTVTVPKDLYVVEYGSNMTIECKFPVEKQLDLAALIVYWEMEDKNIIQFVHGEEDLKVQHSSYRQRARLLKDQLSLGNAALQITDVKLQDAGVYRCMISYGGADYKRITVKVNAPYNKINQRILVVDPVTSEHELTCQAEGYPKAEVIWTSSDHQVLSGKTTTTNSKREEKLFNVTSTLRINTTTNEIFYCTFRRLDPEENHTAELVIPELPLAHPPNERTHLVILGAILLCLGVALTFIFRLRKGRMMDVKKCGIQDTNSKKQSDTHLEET

[2] = target: T2, human CTLA-4 (human, UniProt P16410 36-223); test: flow cytometry, CHO cells stably expressing CTLA4
T2 construct: also called huCTLA4
T2 sequence (P16410 36-223): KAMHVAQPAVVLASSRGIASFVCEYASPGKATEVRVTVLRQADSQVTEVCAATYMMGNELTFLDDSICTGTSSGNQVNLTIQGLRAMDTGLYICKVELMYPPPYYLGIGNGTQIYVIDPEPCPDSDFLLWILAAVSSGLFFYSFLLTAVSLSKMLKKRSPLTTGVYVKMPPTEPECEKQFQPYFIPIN

[3] = target: T1, human PD-L1; test: flow cytometry, CHO cells stably expressing PD-L1
[4] = target: human CD28 (human, UniProt P10747 19-220); test: flow cytometry, Jurkat cells (CD28)
[5] = target: T3, human CTLA4 expressed on CHO cells (human, UniProt P16410 36-223); test: flow cytometry, CHO cells stably expressing CTLA4; MFI relative to WT CD80 ECD-Fc (Abcam)
T3 construct: whole, on cells; Target on CHO cells stably expressing CTLA4; also called huCTLA4
T3 sequence (P16410 36-223): as above

[6] = target: T4, CD28 endogenously expressed on Jurkat/IL2 reporter cells (human, UniProt P10747 19-220); test: flow cytometry, Jurkat cells (CD28), Fc fusion at 33.3 nM
T4 construct: whole, on cells; Target on Jurkat cells; also called Jurkats (CD28)

[7] = target: T3, human CTLA4 expressed on CHO cells; test: flow cytometry, CHO cells stably expressing CTLA4, Fc fusion at 33.3 nM
[8] = target: T5, human PD-L1 expressed on CHO cells (human, UniProt Q9NZQ7 19-290); test: flow cytometry; MFI on PD-L1 cells over MFI on CD28 (Jurkat) cells at 33.3 nM
T5 construct: whole, on cells; Target on CHO cells stably expressing PD-L1; also called huPD-L1
T5 sequence (Q9NZQ7 19-290): as the sequence (Q9NZQ7 19-290) above

[9] = target: T5, human PD-L1 expressed on CHO cells; test: flow cytometry, CHO cells stably expressing PD-L1, Fc fusion at 33.3 nM
[10] = target: T5, human PD-L1 expressed on CHO cells; test: flow cytometry, CHO cells stably expressing PD-L1; MFI relative to WT CD80 ECD-Fc (Abcam)
[11] = target: T4, CD28 endogenously expressed on …; test: flow cytometry, Jurkat cells (CD28); MFI relative to WT CD80 ECD-Fc (Abcam)
[12] = target: T6, human PD-L1, expressed on CHO cells (human, UniProt Q9NZQ7 19-290); test: flow cytometry on CHO cells stably expressing human PD-L1; PE anti-human Fc
T6 construct: Full-length surface expression construct transduced by lentivirus into CHO cells; also called huPD-L1; CD274
T6 sequence (Q9NZQ7 19-290): as above

Binder | Ratio of PDL1:CD28 [1] [ratio] | Fold change to WT CD80 [2] [fold] | MFI at 33.3 nM [2] [MFI] | Fold change to WT CD80 [3] [fold] | MFI at 33.3 nM [3] [MFI] | Fold change to WT CD80 [4] [fold] | MFI at 33.3 nM [4] [MFI] | Fold change to WT CD80 [5] [fold] | MFI at 33.3 nM [6] [MFI] | MFI at 33.3 nM [7] [MFI] | Ratio of PDL1:CD28 [8] [ratio] | MFI at 33.3 nM [9] [MFI] | Fold change to WT CD80 [10] [fold] | Fold change to WT CD80 [11] [fold] | MFI at 33.3 nM [12] [MFI]
B1 | 1040 | 11.8 | 20700 | 285 | 14700 | 0.4 | 14.1 | – | – | – | – | – | – | – | –
B2 | – | – | – | – | – | – | – | 0.6 | 1080 | 23900 | 23.9 | 25900 | 203 | 1.5 | –
B3 | 206 | 0.1 | 141 | 62.7 | 3230 | 0.5 | 15.7 | – | – | – | – | – | – | – | –
B4 | 77.9 | 12.6 | 22000 | 21.5 | 1110 | 0.5 | 14.2 | – | – | – | – | – | – | – | –
B5 | 17.2 | 11.8 | 20700 | 372 | 19200 | 35.4 | 1110 | – | – | – | – | – | – | – | –
B6 | – | – | – | – | – | – | – | 0.9 | 331 | 36500 | 79.4 | 26300 | 205 | 0.5 | –
B7 | 169 | 7.7 | 13400 | 368 | 18900 | 3.6 | 112 | – | – | – | – | – | – | – | –
B8 | 248 | 0.1 | 105 | 77 | 3970 | 0.5 | 16 | – | – | – | – | – | – | – | –
B9 | – | – | – | – | – | – | – | – | – | – | – | – | – | – | 19400
